Reference: US20260266848A1, “COMPOSITIONS AND METHODS FOR DIAGNOSING AND TREATING DYSTONIA” (Duke University, priority 2023, published 2026)

Assays:
[1] = tested on: WT MEF EVs; experiment: Quantitative LC-MS/MS proteomics of EVs from ISRIB-treated WT MEF cultures; type: cell-based, mouse; parameters: key to ISRIB and DYT Parallel Direction / ISRIB and DYT Parallel Direction, Ctdsp1 / ISRIB and DYT Parallel Direction, Pcdh19 / ISRIB and DYT Parallel Direction, Tspan7 / ISRIB and DYT Parallel Direction, Myo1e / ISRIB and DYT Parallel Direction, Plpp3 / ISRIB and DYT Parallel Direction, Sh3bp4 / ISRIB and DYT Parallel Direction, Dnajc7 / ISRIB and DYT Parallel Direction, Drg1 / ISRIB and DYT Parallel Direction, Maea: YES = protein abundance effect similar to DYT/WT; conditions: EV protein abundance; for WT + ISRIB/WT Cohen's d: ISRIB-treated WT vs WT; for ISRIB and DYT Parallel Direction: WT + ISRIB vs WT, direction compared with DYT/WT
[2] = tested on: DYT-TOR1A MEF EVs; experiment: Quantitative LC-MS/MS proteomics of EVs from drug-treated DYT-TOR1A MEF cultures (ritonavir, salubrinal); type: cell-based, mouse; parameters: key to RTV Corrective Direction / RTV Corrective Direction, Grwd1 / RTV Corrective Direction, Srrm2 / RTV Corrective Direction, Rbm17 / RTV Corrective Direction, Dcaf8 / RTV Corrective Direction, Edil3 / RTV Corrective Direction, Timp3 / RTV Corrective Direction, Heatr3 / RTV Corrective Direction, Brd4 / RTV Corrective Direction, P3h4 / RTV Corrective Direction, Pacsin3 / RTV Corrective Direction, Naa50 / RTV Corrective Direction, Lpar6 / RTV Corrective Direction, Ndrg1 / RTV Corrective Direction, Kntc1 / RTV Corrective Direction, Cdk11b / RTV Corrective Direction, Sumo1 / RTV Corrective Direction, Lsm4 / RTV Corrective Direction, Hmga2 / RTV Corrective Direction, Cstf1 / RTV Corrective Direction, Tes / RTV Corrective Direction, Sbno1 / RTV Corrective Direction, Unc119b / RTV Corrective Direction, Cfdp1 / RTV Corrective Direction, Sec61b: YES = protein abundance effect opposite to DYT/WT; conditions: EV protein abundance; for RTV Corrective Direction: DYT + RTV (ritonavir) vs DYT, direction compared with DYT/WT; for DYT + RTV/DYT Cohen's d: ritonavir (RTV)-treated DYT vs DYT

B1: Mri1 (protein, UniProt Q9CQT1 1-369, looked up)
Methylthioribose-1-phosphate …: MTLEAIRYSPGSLQILDQLQLPEHCHYEALSSVQQASEAIRAMKVRGAPAIALVGCLSLAVELRAGAGGPGLAALVAFVRDQLRLLVAARPTAVNMARAARDLGQVAAQEAEREGATEETVRERVIRFAEDMLEKDLKDNRSIGDLGARHLLEQTNPRGGKVTVLTHCNTGALATAGYGTALGVIRSLHEMGRLEHTFCTETRPYNQGARLTAFELVYEQIPATLITDSMAAAAMAHRGVSAVVVGADRVVANGDTANKIGTYQLAIVAKHHGVPFYVAAPSSSCDLHLETGKEIVIEERPSQELTDLNGVRIAAQGIRVWNPAFDVTPHELITGGIITELGVFAPEELRGALSASVFSEGQTLDSPWV
WT + ISRIB/WT Cohen's d [1]: −0.01 | ISRIB and DYT Parallel Direction [1]: YES | RTV Corrective Direction [2]: YES | DYT + RTV/DYT Cohen's d [2]: 5.85

B2: Eif4g2 (protein, UniProt Q62448 1-906, looked up)
Eukaryotic translation …: MESAIAEGGASRFSASSGGGGSRGAPQHYPKTAGNSEFLGKTPGQNAQKWIPARSTRRDDNSAANNSANEKERHDAIFRKVRGILNKLTPEKFDKLCLELLNVGVESKLILKGVILLIVDKALEEPKYSSLYAQLCLRLAEDAPNFDGPAAEGQPGQKQSTTFRRLLISKLQDEFENRTRNVDVYDKRENPLLPEEEEQRAIAKIKMLGNIKFIGELGKLDLIHESILHKCIKTLLEKKKRVQLKDMGEDLECLCQIMRTVGPRLDHERAKSLMDQYFARMCSLMLSKELPARIRFLLQDTVELREHHWVPRKAFLDNGPKTINQIRQDAVKDLGVFIPAPMAQGRSDFFLEGPFMPPRMKMDRDPLGGLADMFGQMPGSGIGTGPGVIQDRFSPTMGRHRSNQLFNGHGGHIMPPTQSQFGEMGGKFMKSQGLSQLYHNQSQGLLSQLQGQSKDMPPRFSKKGQLNADEISLRPAQSFLMNKNQVPKLQPQITMIPPSAQPPRTQTPPLGQTPQLGLKTNPPLIQEKPAKTSKKPPPSKEELLKLTEAVVTDYLNSGNANDAVSGVREMRAPKHFLPEMLSKVIILSLDRSDEDKEKASSLISLLKQEGIATSDNFMQAFLNVLEQCPKLEVDIPLVKSYLAQFAARAIISELVSISELAQPLESGTHFPLFLLCLQQLAKLQDREWLTELFQQSKVNMQKMLPEIDQNKDRMLEILEGKGLSFLFPLLKLEKELLKQIKLDPSPQTIYKWIKDNISPKLHVDKGFVNILMTSFLQYISSEVSPPSDETDSSSAPSKEQLEQEKQLLLSFKPVMQKFLHDHVDLQVSALYALQVHCYNSSFPKGMLLRFFVHFYDMEIIEEEAFLAWKEDITQEFPGKGKALFQVNQWLTWLETAEEEESEEEAD
WT + ISRIB/WT Cohen's d [1]: −3.04 | ISRIB and DYT Parallel Direction [1]: YES | RTV Corrective Direction [2]: YES | DYT + RTV/DYT Cohen's d [2]: 2.79

B3: Sec31a (protein, UniProt Q3UPL0 1-1230, looked up)
Protein transport protein …: MKLKEIDRTAMQAWSPAQNHPIYLATGTSAQQLDATFSTNASLEIFELDLSDPSLDMKSCATFSSSHRYHKLIWGPHKMDSKGDVSGVLIAGGENGNIILYDPSKIIAGDKEVVIAQKDKHTGPVRALDVNIFQTNLVASGANESEIYIWDLNNFATPMTPGAKTQPPEDISCIAWNRQVQHILASASPSGRATVWDLRKNEPIIKVSDHSNRMHCSGLAWHPDVATQMVLASEDDRLPVIQMWDLRFASSPLRVLENHARGILAVAWSMADPELLLSCGKDAKILCSNPNTGEVLYELPTNTQWCFDIQWCPRNPAVLSAASFDGRISVYSIMGGSIDGLRQKQVDKLSSSFGNLDPFGTGQPLPPLQIPQQSAQHSIVLPLKKPPKWIRRPVGASFSFGGKLVTFESVAVPLQQGAEQQRRQPVFISQVVTEKDFLNRSAQLQHAVQSQGFIGYCQKKIEASQTEFEKNVWSFLKVNFEEDSRGKYLELLGYRKEDLGQKIALALNKVDGPDVALKDSDQVAQSDGEESPAAEEQLLGERIKEEKQECDFLPSAGGTFNISVSGDIDGLITRALLTGNFESAVDLCLHDNRMADAIILAIAGGQELLAQTQKKYFAKSQSKITRLITAVVMKNWREIVESCDLKNWREALAAVLTYAKPDEFSALCDLLGTRLEREGDSLLRTQACLCYICAGNVERLVACWTKAQDGSSPLSLQDLIEKVVILRKAVQLTQALDTNTVGALLAEKMSQYASLLAAQGSIAAALAFLPDNTNQPNIVQLRDRLCKAQGKPVSGQESSQSPYERQPLSKGRPGPVAGHSQMPRVQTQQYYPHGENPPPPGFIMQGNVIPNPAAPLPTAPGHMPSQLPPYPQPQPYQPAQQYSFGTGGAAAYRPQQPVAPPASNAYPNTPYISPVASYSGQPQMYTAQQASSPTSSSAASFPPPSSGASFQHGGPGAPPSSSAYALPPGTTGTPPAASELPASQRTENQSFQDQASILEGPQNGWNDPPALNRVPKKKKMPENFMPPVPITSPIMNPSGDPQSQGLQQQPSTPGPLSSHASFPQQHLAGGQPFHGVQQPLAQTGMPPSFSKPNTEGAPGAPIGNTIQHVQALPTEKITKKPIPEEHLILKTTFEDLIQRCLSSATDPQTKRKLDDASKRLEFLYDKLREQTLSPTIINGLHSIARSIETRNYSEGLSVHTHIVSTSNFSETSAFMPVLKVVLSQASKLGV
WT + ISRIB/WT Cohen's d [1]: −1.34 | ISRIB and DYT Parallel Direction [1]: YES | RTV Corrective Direction [2]: YES | DYT + RTV/DYT Cohen's d [2]: 5.50

B4: Itgb5 (protein, UniProt O70309 24-798, looked up)
Integrin beta-5: GLNICTSGSATSCEECLLIHPKCAWCSKEYFGNPRSITSRCDLKANLIRNGCEGEIESPASSTHVLRNLPLSSKGSSATGSDVIQMTPQEIAVSLRPGEQTTFQLQVRQVEDYPVDLYYLMDLSLSMKDDLENIRSLGTKLAEEMRKLTSNFRLGFGSFVDKDISPFSYTAPRYQTNPCIGYKLFPNCVPSFGFRHLLPLTDRVDSFNEEVRKQRVSRNRDAPEGGFDAVLQAAVCKEKIGWRKDALHLLVFTTDDVPHIALDGKLGGLVQPHDGQCHLNEANEYTASNQMDYPSLALLGEKLAENNINLIFAVTKNHYMLYKNFTALIPGTTVEILHGDSKNIIQLIINAYSSIRAKVELSVWDQPEDLNLFFTATCQDGISYPGQRKCEGLKIGDTASFEVSVEARSCPGRQAAQSFTLRPVGFRDSLQVEVAYNCTCGCSTGLEPNSARCSGNGTYTCGLCECDPGYLGTRCECQEGENQSGYQNLCREAEGKPLCSGRGECSCNQCSCFESEFGRIYGPFCECDSFSCARNKGVLCSGHGECHCGECKCHAGYIGDNCNCSTDVSTCKAKDGQICSDRGRCVCGQCQCTEPGAFGETCEKCPTCPDACSSKRDCVECLLLHQGKPDNQTCHHQCKDEVITWVDTIVKDDQEAVLCFYKTAKDCVMMFSYTELPNGRSNLTVLREPECGSAPNAMTILLAVVGSILLIGMALLAIWKLLVTIHDRREFAKFQSERSRARYEMASNPLYRKPISTHTVDFAFNKFNKSYNGSV
WT + ISRIB/WT Cohen's d [1]: 1.22 | ISRIB and DYT Parallel Direction [1]: YES | RTV Corrective Direction [2]: YES | DYT + RTV/DYT Cohen's d [2]: −4.69

B5: Upf1 (protein, UniProt Q9EPU0 1-1124, looked up)
Regulator of nonsense …: MSVEAYGPSSQTLTFLDTEEAELLGADTQGSEFEFTDFTLPSQTQTPPGGPGGAGGPGGAGAGGAAGQLDAQVGPEGILQNGAVDDSVAKTSQLLAELNFEEDEEDTYYTKDLPVHACSYCGIHDPACVVYCNTSKKWFCNGRGNTSGSHIVNHLVRAKCKEVTLHKDGPLGETVLECYNCGCRNVFLLGFIPAKADSVVVLLCRQPCASQSSLKDINWDSSQWQPLIQDRCFLSWLVKIPSEQEQLRARQITAQQINKLEELWKENPSATLEDLEKPGVDEEPQHVLLRYEDAYQYQNIFGPLVKLEADYDKKLKESQTQDNITVRWDLGLNKKRIAFFTLPKTDSGNEDLVIIWLRDMRLMQGDEICLRYKGDLAPLWKGIGHVIKVPDNYGDEIAIELRSSVGAPVEVTHNFQVDFVWKSTSFDRMQSALKTFAVDETSVSGYIYHKLLGHEVEDVVIKCQLPKRFTAQGLPDLNHSQVYAVKTVLQRPLSLIQGPPGTGKTVTSATIVYHLARQGNGPVLVCAPSNIAVDQLTEKIHQTGLKVVRLCAKSREAIDSPVSFLALHNQIRNMDSMPELQKLQQLKDETGELSSADEKRYRALKRTAERELLMNADVICCTCVGAGDPRLAKMQFRSILIDESTQATEPECMVPVVLGAKQLILVGDHCQLGPVVMCKKAAKAGLSQSLFERLVVLGIRPIRLQVQYRMHPALSAFPSNIFYEGSLQNGVTAADRVKKGFDFQWPQPDKPMFFYVTQGQEEIASSGTSYLNRTEAANVEKITTKLLKAGAKPDQIGIITPYEGQRSYLVQYMQFSGSLHTKLYQEVEIASVDAFQGREKDFIILSCVRANEHQGIGFLNDPRRLNVALTRARYGVIIVGNPKALSKQPLWNHLLSYYKEQKALVEGPLNNLRESLMQFSKPRKLVNTVNPGARFMTTAMYDAREAIIPGSVYDRSSQGRPSNMYFQTHDQISMISAGPSHVAAMNIPIPFNLVMPPMPPPGYFGQANGPAAGRGTPKTKTGRGGRQKNRFGLPGPSQTTLPNSQASQDVASQPFSQGALTQGYVSMSQPSQMSQPGLSQPELSQDSYLGDEFKSQIDVALSQDSTYQGERAYQHGGVTGLSQY
WT + ISRIB/WT Cohen's d [1]: −1.84 | ISRIB and DYT Parallel Direction [1]: YES | RTV Corrective Direction [2]: YES | DYT + RTV/DYT Cohen's d [2]: 4.24

B6: Atp6v1h (protein, UniProt Q8BVE3 1-483, looked up)
V-type proton ATPase subunit H: MTKMDIRGAVDAAVPTNIIAAKAAEVRANKVNWQSYLQGQMISAEDCEFIQRFEMKRSSEDKQEMLQTEGSQCAKTFINLMTHISKEQTVQYILTMVDDMLQENHQRVSIFFDYAKRSKSTAWPYFLPMLNRQDPFTVHMAARIIAKLAAWGKELMEGSDLNYYFNWIKTQLSSQKLRGSGVAVETGTISSSDSSQYVQCVAGCLQLMLRVNEYRFAWVEADGVNCIMGVLSNKCGFQLQYQMIFSIWLLAFSPQMCEHLRRYNIIPVLSDILQESVKEKVTRIILAAFRNFLEKSTERETRQEYALAMIQCKVLKQLENLEQQKYDDEDISEDIKFLLEKLGESVQDLSSFDEYSSELKSGRLEWSPVHKSEKFWRENAVRLNEKNYELLKILTKLLEVSDDPQVLAVAAHDVGEYVRHYPRGKRVIEQLGGKQLVMNHMHHEDQQVRYNALLAVQKLMVHNWEYLGKQLQSEQPQTAAARS
WT + ISRIB/WT Cohen's d [1]: −0.66 | ISRIB and DYT Parallel Direction [1]: YES | RTV Corrective Direction [2]: YES | DYT + RTV/DYT Cohen's d [2]: 4.82
